From the RNAGym collection of RNA variant scans (doi:10.1021/acssynbio.7b00057)

B1: Pistol ribozyme (parent)
chain: GGGUCGUUGUUCCAUAAUCGCGUGGAUAUGGCACGCAAGUUUCUACCGGGCACCGUAAAUGUCCGACUGGAGCCGUUCGGGCGGCUAUAAACAGACCUCAGGCCCGAAGCGUGGCGGCACCUGCCGCCGGUGGUAAAAAAGAUCGGAAGAGCACACGUCU

Variants of: B1
Assay: aptazyme ON/OFF ratio, guanine; higher = stronger switching; co-transcriptional cleavage with and without guanine

In order of rising “aptazyme ON/OFF ratio” value:
1. U7C U8G G9A U10C U11C C13G  1.01
2. U7C U8G G9A U10C U11C C12U C13G  1.01
3. U7C U8G G9A U10C U11C C12U  1.01
4. U7C U8G G9A U10C U11C C13A  1.02
5. U7C U8G G9A U10C U11C C13U  1.02
6. U7C U8G G9A U10C U11C C12U C13U  1.02
7. U7C U8G G9A U10C U11C C12U C13A  1.02
8. U7C U8G G9A U10A U11C C13G  1.02
9. U7C U8G G9A U10C U11C C12A C13A  1.03
10. U7C U8G G9A U10C U11C C12G  1.03
11. U7C U8G G9A U10A U11C C13A  1.03
12. U7C U8G G9A U10G U11C C13U  1.03
13. U7C U8G G9A U10G U11A C13U  1.04
14. U7C U8G G9A U10C U11C C12A C13G  1.04
15. U7C U8G G9A U10A U11C C13U  1.04
16. U7C U8G G9A U10G U11C C13G  1.04
17. U7C U8G G9A U10A U11C C12U  1.05
18. U7C U8G G9A U10A C13G  1.05
19. U7C U8G G9A U10C U11C C12A  1.05
20. U7C U8G G9A U10C U11C C12A C13U  1.06
21. U7C U8G G9A U10C U11C C12G C13U  1.07
22. U7C U8G G9A U10C C12U C13G  1.07
23. U7C U8G G9A U10C U11G C12A  1.07
24. U7C U8G G9A U10A U11C C12U C13U  1.08
25. U7C U8G G9A U10A U11C C12U C13G  1.08
26. U7C U8G G9A U10C C12U C13A  1.08
27. U7C U8G G9A U10G C12A C13G  1.08
28. U7C U8C U10G U11G C12U C13U  1.08
29. U7C U8G G9A U10G U11A C13A  1.09
30. U7C U8G G9A U10C C12A C13G  1.09
31. U7C U8G G9A U10C U11G C12G C13U  1.09
32. U7C U8G G9A U10G U11A C13G  1.1
33. U7C U8G G9A U10C C12U C13U  1.1
34. U7C U8G G9A U10A U11A C12G  1.1
35. U7C U8C U10G U11A C12U C13G  1.1
36. U7C U8C U10G U11G C12U C13A  1.1
37. U7C U8C U10G U11A C12A C13A  1.11
38. U7C U8C U10G U11G C12A C13G  1.11
39. U7C U8C U10G U11G C12G C13G  1.11
40. U7C U8C U10G C12U  1.11
41. U7C U8G G9A U10A C12G C13A  1.11
42. U7C U8C U11G C12A C13G  1.11
43. U7C U8C U11G C12U C13G  1.11
44. U7C U8G G9A U10G U11G C12A C13A  1.11
45. U7C U8G G9A U10G U11C C13A  1.11
46. U7C U8C U10G U11A C12A C13G  1.12
47. U7C U8C U11C C13G  1.12
48. U7C U8C U10G C12G  1.12
49. U7C U8G G9A C12G C13G  1.12
50. U7C U8G G9A  1.12
51. U7C U8G G9A U10A C13A  1.12
52. U7C U8G G9A U10C C12G C13G  1.12
53. U7C U8G G9A U10C U11G C12A C13A  1.12
54. U7C U8G G9A U10G U11G C12A C13U  1.12
55. U7C U8C U10G U11A C12U  1.12
56. U7C U8G G9A U10G C12A C13A  1.12
57. U7C U8C U10G U11G C12U C13G  1.12
58. U7C U8C U10G U11C C12G C13G  1.13
59. U7C U8G G9A U10C C12A C13A  1.13
60. U7C U8C U10G U11G C12A C13U  1.13
61. U7C U8C U10G U11G C12G C13A  1.13
62. U7C U8G G9A U10C U11C C12G C13A  1.13
63. U7C U8C U10G C12A  1.13
64. U7C U8C U11A C12U C13G  1.13
65. U7C U8G G9A U10C C12G C13A  1.13
66. U7C U8G G9A U10C U11G C12A C13G  1.13
67. U7C U8G G9A U10A U11G C12A C13A  1.13
68. U7C U8G G9A U10C C12A C13U  1.14
69. U7C U8C U11A C12G  1.14
70. U7C U8C U10G U11A C13G  1.14
71. U7C U8G G9A U10A U11C C12U C13A  1.14
72. U7C U8C U10G U11G C12A C13A  1.14
73. U7C U8C U10G U11G C12G C13U  1.14
74. U7C U8G G9A U10C U11C C12G C13G  1.14
75. U7C U8C U11G C12A C13A  1.14
76. U7C U8G G9A U10C U11G C12U C13G  1.14
77. U7C U8C U11G C12U C13A  1.14
78. U7C U8G G9A U10C U11G C12A C13U  1.14
79. U7C U8C U10G U11A C12G  1.14
80. U7C U8C U10G U11A C13U  1.15
81. U7C U8G G9A C12G C13A  1.15
82. U7C U8G G9A U10A C13U  1.15
83. U7C U8G G9A U10A U11C C12A C13A  1.15
84. U7C U8G G9A U10A U11C C12A C13G  1.15
85. U7C U8G G9A U10G C13G  1.16
86. U7C U8C U11A C12U  1.16
87. U7C U8C U11A C12U C13A  1.16
88. U7C U8G G9A C12U C13A  1.16
89. U7C U8G G9A U10A U11G C12A C13U  1.16
90. U7C U8C U10G U11A C12U C13A  1.16
91. U7C U8G G9A U10G U11A C12U  1.16
92. U7C U8C U10G U11C C12G C13A  1.17
93. U7C U8C U10G U11C C12G C13U  1.17
94. U7C U8G G9A U10A U11C C12A C13U  1.17
95. U7C U8G G9A U10A  1.18
96. U7C U8G G9A U10A U11A C12U  1.18
97. U7C U8G G9A U10G U11A C12A C13A  1.18
98. U7C U8C U11C C12A C13G  1.18
99. U7C U8G G9A U10A C12U C13A  1.18
100. U7C U8G G9A C12U  1.19
101. U7C U8G G9A U10A U11G C12G C13A  1.19
102. U7C U8G G9A U10A U11G C12A C13G  1.19
103. U7C U8C U10C U11G C12U  1.2
104. U7C U8C U11C C12U C13G  1.2
105. U7C U8C U10G U11G C12G  1.2
106. U7C U8C U11G C12A C13U  1.2
107. U7C U8G G9A U10A U11C C12A  1.21
108. U7C U8C U10G U11A C13A  1.21
109. U7C U8G G9A C12G C13U  1.21
110. U7C U8C U10G U11A C12U C13U  1.21
111. U7C U8C U10G U11G C12U  1.22
112. U7C U8G G9A U10G U11A C12A C13U  1.22
113. U7C U8C U11G C12U C13U  1.22
114. U7C U8G G9A U10C U11G C12G  1.22
115. U7C U8G G9A C12U C13U  1.22
116. U7C U8G G9A U10G C13A  1.23
117. U7C U8G G9A U10C U11G C12G C13A  1.23
118. U7C U8G G9A U10G U11A C12G C13G  1.24
119. U7C U8C U11C C13A  1.24
120. U7C U8C U11G C13A  1.24
121. U7C U8G G9A U10G U11G C12A C13G  1.24
122. U7C U8G G9A U10G U11A C12G  1.24
123. U7C U8G G9A U10A U11C C12G  1.25
124. U7C U8C U10G U11A C12A C13U  1.25
125. U7C U8G G9A U10G U11C C12U C13G  1.25
126. U7C U8G G9A U10G U11A C12G C13A  1.26
127. U7C U8G G9A U10A U11A C12A  1.26
128. U7C U8C U10G U11G C12A  1.26
129. U7C U8G G9A U10C U11G C12U C13A  1.26
130. U7C U8G G9A U10C U11G C12G C13G  1.27
131. U7C U8G G9A U10A C12U C13U  1.27
132. U7C U8G G9A U10C U11G C12U C13U  1.28
133. U7C U8C U11G C13G  1.28
134. U7C U8C U11C C12A C13U  1.28
135. U7C U8G G9A C12G  1.29
136. U7C U8G G9A U10G U11C C12U C13U  1.29
137. U7C U8G G9A U10C U11G C12U  1.29
138. U7C U8C U11C C13U  1.3
139. U7C U8C U11G C13U  1.3
140. U7C U8G G9A U10G U11A C12A C13G  1.3
141. U7C U8C U10G U11A C12A  1.3
142. U7C U8C U11C C12A C13A  1.3
143. U7C U8C U11G  1.31
144. U7C U8G G9A U10A C12G C13U  1.31
145. U7C U8G G9A U10C C12G C13U  1.31
146. U7C U8G G9A U10A U11G C12G C13U  1.33
147. U7C U8C U11A C12A  1.34
148. U7C U8G G9A C12A  1.34
149. U7C U8G G9A U10G U11C C12U C13A  1.34
150. U7C U8G G9A U10G C12G  1.34
151. U7C U8G G9A C12U C13G  1.35
152. U7C U8G  1.35
153. U7C U8G G9A U10G C12A C13U  1.36
154. U7C U8C U11C C12U C13A  1.37
155. U7C U8C U11A C12U C13U  1.37
156. U7C U8G G9A U10G C12U  1.37
157. U7C U8G G9A U10G C12A  1.37
158. U7C U8G G9A U10A U11G C12G C13G  1.39
159. U7C U8G G9A U10G U11A C12G C13U  1.42
160. U7C U8C U11C C12U C13U  1.43
161. U7C U8G G9A U10A C12G C13G  1.46
162. U7C U8G G9A U10G U11A C12A  1.47
163. U7C U8G G9A U10G C13U  1.54
164. U7C U8C U11A  1.66
165. U7C U8G G9A U10G  2.11
166. U7C U8C U11C  2.42
167. U7C U8G G9A U10C  3.63
